{"source": "the DeepSol protein solubility set", "data": [{"experiment": "soluble on expression in E. coli; label from the status in PepcDB or PDB records", "values": [{"sequence": "MKPMTQEPSTLYAKLLGETASITWTELQPFFAKGALLWVELPLDLIEVAEAVAENDAARVSAWLADGQVGKVSETKALELVETDPQLWAVVVAPWVLIQNRANV", "soluble on expression in E. coli": "not soluble"}, {"sequence": "MSAEAADREAVSGSRPCTPPQTSWFEFLLNPSLLEQHLHSPHPDPSPVQLIFQFLEQASKPSVNEQNQVQPPVDNRRNRTLKLMALKVAAHLRWDLNMLEKGLTIPVLNMLLNELLCVSHVPPGVKHVDLDLSSLPPTTAMAVVFYNRWAIRTIVLSSFPEKQTKPGPHQLNMMNMLQQEKEHTENILSVLREQATDSIMVLEGALSIKKDFYIHL", "soluble on expression in E. coli": "not soluble"}, {"sequence": "MGSDKIHHHHHHMLLVENFDLRATMEQPTSFDEMWGTSGSLREPYREFHDWFGSEDPARLRKKQRDADKLFRLTGITFNVYGKAEAEERLIPFDIIPRIISGSEWARLSRGIEQRVRAINAFLYDIYHKQEIVKAGRIPKEMISRNDAFLPHMIGVEPPGGVYTHIVGIDLVRTGPGEFYVLEDNARTPSGVSYMLENRETMLQMFPELFSQNRVQPVSNYPTDLRRSLAASAPQSCTGKPVVAVLTPGIYNSAYFEHAFLADKMGVELVEGQDLRVIDGRVAMRTTRGYKPIDVLYRRVDDEFLDPLNFNPESALGVPGIMDVYRAGNITIANAPGTGIADDKAIYSYMPEIVEFYTGERPLLQNVQTWRCSEPDALAYVLDNLEDLVVKEVHGSGGYGMLIGPTASKKDLAAFRRKLKARPGNYIAQPTLALSTVPIFSRAGLSPRHVDLRPFVLCSPNKVHITPGGLTRVALKKGSLVVNSSQGGGTKDTWVLED", "soluble on expression in E. coli": "not soluble"}, {"sequence": "NNPVSETITRKHVDKDQIRAFGVVAEDNAQLEKGSLVMMGGKYWFVVNPEDSAKLTGILKAGLDKPFQIVEDTPSYARHQALPVKLESPGSQNFSTEGLCLRYDTDKPADIAKLKQLGFEAVKLDNRTIYTRCVSAKGKYYATPQKLNADYHFEQSVPADIYYTVTEEHTDKSKLFANILYTPP", "soluble on expression in E. coli": "not soluble"}, {"sequence": "AELRSREYAEILKQKQELSLVEAGEFNSLGKRNGRVYFVETFDTESGIMKNLFLREQDKNGGDNIIFAKEGNFSLNDNKRTLELRHGYRYSGTPGRADYNQVSFQKLNLIISTTPKLIDPVSHRRTIPTAQLIGSSNPQHQAELMWR", "soluble on expression in E. coli": "soluble"}, {"sequence": "MGSDKIHHHHHHMRAVSIVGLGWLGLTLARHLKNLGWKVKGTKRTHEGVEQMRLIRLEAYHLELTPDINADPDDLTALLSVDALVINIPPSQYFFHLQHYVQGVKNLVNEALLNGLQHIIFISSTSVFPDVSGEFDEQSQIVPQSEMSKALLEIEQWLFELKDVDCDIIRFGGLVGEDRHPVYSLAGKDELSAGNMPINLVHVDDCARAIQLLLETPSSQRLYHLVAPQHPTRAEYYSQIAEKLALEAPHFICSEQDPRRVILANKICRELSFVYQCPDPYLMLFERK", "soluble on expression in E. coli": "not soluble"}, {"sequence": "MITAIVFDVDDTIYDQQAPYRIAMEKCFPDFDMSVMNQAYIRFRHYSDVGFPRVMAGEWTTEYFRFWRCKETLLEFGYREIDEAAGVHFQEVYEHELENITMLDEMRMTLDFLKSKNVPMGIITNGPTEHQLKKVRKLGLYDYIDAKRVIVSQATGFQKPEKEIFNLAAEQFDMNPQTTLYVGDSYDNDIMGAFNGGWHSMWFNHRGRQLKPGTKPVYDVAIDNFEQLFGAVKVLFDLPDNKFIFDVNDKKNPILQMGINNGLMMAAERLLESNMSIDKVVILLRLTKQQEKVLRLKYAR", "soluble on expression in E. coli": "not soluble"}, {"sequence": "MAREKVSLTEFNLFSEGILEQGSSVRALEWAPIVPFADRAGFEQESRKALKKDFAIIELLANGNTIPAQSRTQYAPLYYIYPQYNNQEALGLDVYSNPTHILSMQVVVNSKAVIASAPITLVQDELAKPGMLFSKAVFLPPEVNELASNEAQQKLSIIKEGKLLGFVVAVAQFDSFFEQLAQQKEQEVSFFIQDVSGSQPLSLFGQAFPTVNRHVDTITIEVFSRLWQIDIALEHHHHHH", "soluble on expression in E. coli": "not soluble"}, {"sequence": "MSTLLKSAKSIVPLMDRVLVQRIKAQAKTASGLYLPEKNVEKLNQAEVVAVGPGFTDANGNKVVPQVKVGDQVLIPQFGGSTIKLGNDDEVILFRDAEILAKIAKD", "soluble on expression in E. coli": "not soluble"}, {"sequence": "EPKLDMNKQKISPAEVAKHNKPDDCWVVINGYVYDLTRFLPNHPGGQDVIKFNAGKDVTAIFEPLHAPNVIDKYIAPEKKLGPLQGSMPPELVCPPYAPGETKEDIARKEQLKSLLPPLDNIINLYDFEYLASQTLTKQAWAYYSSGANDEVTHRENHNAYHRIFFKPKILVDVRKVDISTDMLGSHVDVPFYVSATALCKLGNPLEGEKDVARGCGQGVTKVPQMISTLASCSPEEIIEAAPSDKQIQWYQLYVNSDRKITDDLVKNVEKLGVKALFVTVDAPSLGQREKDMKLKFSNTKAGPKAMKKTNVEESQGASRALSKFIDPSLTWKDIEELKKKTKLPIVIKGVQRTEDVIKAAEIGVSGVVLSNHGGRQLDFSRAPIEVLAETMPILEQRNLKDKLEVFVDGGVRRGTDVLKALCLGAKGVGLGRPFLYANSCYGRNGVEKAIEILRDEIEMSMRLLGVTSIAELKPDLLDLSTLKARTVGVPNDVLYNEVYEGPTLTEFEDA", "soluble on expression in E. coli": "soluble"}, {"sequence": "MPITRTGLPHAVASTSQTQETSQASASQGVLDPGTVPPRRAETFDGLSALPNDLRREIAQRCGPRSLVRLGSVSRQMAEDTRDVRAFLTARPRYDPSLEFGDVHSAESMRVALDEVTHFPYPDDEDRSEQILRGYGRLAARIPSLPQAQRFEAFTAVLNHATRHSGNMAFRVVARLTDDLGCLPEDLRALAFHAILPSLIATRRQALQAAAGAAHVGHIGAVAEADAGGVQGDGEPGPQGAVAPAQGGAAGGIGGALPFNLLASAIRHLPEEAVNLAITEAAALQTGPRLLAEVTLRLHLVGLEPIHRFQQAYAQLAEHLARSGDGAEALTHLVALLNRLPNPGVRQAAFRELTRAVHALDSTESGAAVLRRLAGALPHQPAAVRYLCSLDVLAAAASLFPSEQIPVIAAVRAQAAAIPNQAAELIARCDDAIATASMMLATVSRRYMDM", "soluble on expression in E. coli": "not soluble"}, {"sequence": "MPGACGIYALATVSKPDPDMTQIITALAEISERYRALFVDLWGCVHNGVTAYPEAVAALQAYRAAGGIVVLVTNSPKPRAGVATQLSQFKVPQDAYDTIATSGDSARSAMFRGAVGQKVYFMGEWERDAGFFEPLKLLDSPVEITRVPLQEAEGIVCCGPFDPMADPAVNRPDFLYAKTKGMKLLCANPDIVVDRGEIREWCAGALARLYTEMGGESLYFGKPHPPIYDLARRRLLSLGADIADSEILAIGDGIQTDIAGGQGEGIDSLFISGGLAASETKTGHSPDPAALTAYLDRENRMPTYTIGQLR", "soluble on expression in E. coli": "not soluble"}, {"sequence": "MGSDKIHHHHHHMITASIVTYHHHFKDIRKVIECILSSPVSILYIIDNSSNDRLRELAKISAKIKYIHSVNLGYGAGHNIAIRESIDIGATYHIVVNPDIYFEEGVIEKLIIYMNKYSEVGLVMPRVLYPNGELQYLCKLLPTPFDLLFRRFLPWRRYVEKKNEKYELRFTNYSREMEVPSLSGCFMFVRIAVLKKVGGFDERYFMYAEDLDLCRRIGKVSRTMYYPNVVVYHEYAKGSYKNRRLLRYHLSSVVKYFNKWGWVWDLDRKIINKRILDNLKNV", "soluble on expression in E. coli": "not soluble"}, {"sequence": "MLTISNQVQLADWEIELTAIRAQGAGGQNVNKVSSAIHLRFDISRSTLPAFYKERLLKMRDHRITKEGIIIIKAQQFRTQEKNREDALDRLKQLIQSATETQKARKETKPTRSSQHKRMDKKSQRGQTKSMRKKVDYLEHHHHHH", "soluble on expression in E. coli": "soluble"}, {"sequence": "MGSDKIHHHHHHMSCIDCAVKNCNKMDKTYPDFCLTTHMDEEVLNEAMECYNEDENRKVTIAAAEVEYENYCKHTRVEEIMDFAKKINAKKIGIATCVGLLKESRILADILRRHGFEVYGVGCKAGTQKKTSVGIPECCEGVGVNMCNPILQAKLLNKAKTDLNVVVGLCVGHDSLFYKYSEALTTTAVTKDRVLGHNPVAALYTADSYYSKLKKSEEE", "soluble on expression in E. coli": "not soluble"}, {"sequence": "SKDLSVSLQANFTYNKNKMVYVDEPEYPTIWKSETGKPYSRITGYIAEGLFKSQEEIDNSPAQNLGSTPKVGDIKYRDLNGDGIIDSDDQTMISKYGSTPRLQYGFGGTVNYKKFDFGVFFSGSALRSIMTNGIDPFQEGIAVGNRNVLKYIADNYWSEEKQNWDAKYPRLGLLATDVANNTVNSSYWLRNGSFLRLKNVEVGYKIPYGRIFVSAANLFTFSPFDLWDPELSSWNSYPMQKTVNVGIQLQF", "soluble on expression in E. coli": "not soluble"}]}]}
